According to the RNAGym collection of RNA variant scans (doi:10.7554/elife.80360):

B1: Hammerhead Ribozyme (parent)
chain: ACCGGAUGUGCUUUCCGGUCUGAUGAGUCCGUGAGGACGAAACAG

Variants of: B1
Assay: self-cleavage, relative activity (ratio to wild type); higher = more cleavage; co-transcriptional
Variant ACCGGAUGUGCUUUCCGGCCUGAUGAGUCCGUGGGGACGAAACAG [U19C A34G] has a self-cleavage of 0.478. Variant ACCGGAUGUGCUUUCCGGUCUGAUGAAUCCGUGAGGACGUAACAG [G27A A40U] has a self-cleavage of 0.304. Variant AUCGGAUGUGCUUUCCGGUCUGAUGAGUCCGUGAGCACGAAACAG [C2U G36C] has a self-cleavage of 0.371. For ACCGGAUGUGCUUUCCUGUCUGAUGAGUCCGUUAGGACGAAACAG [G17U G33U], the self-cleavage was 0.9. With ACCUGAUGUGCUUUCCGGUCUGAUGAGUCCGGGAGGACGAAACAG [G4U U32G] the self-cleavage was 0.316. In the case of ACCGGAUGUGCUUUCCGGUCUGUUGAGUCCGUGAGGACGAUACAG [A23U A41U], the self-cleavage is reported as 0.307. Work on ACCGGAUGUGCUUUCCGGUCUGAUGUGUCCGUGGGGACGAAACAG [A26U A34G] yielded a self-cleavage of 0.482. Variant ACCGGAUGUGCUUUCCGGUCGAAUGAGUCCGUGAGGACGAAACAG [U21G G22A] has a self-cleavage of 0.324. Variant ACCGGAUGUGCUGUCCGGUCUGAUGAGUCCGUGAGGACGAAACUG [U13G A44U] has a self-cleavage of 0.644. In the case of ACCGGACGUACUUUCCGGUCUGAUGAGUCCGUGAGGACGAAACAG [U7C G10A], the self-cleavage is reported as 1.02. Work on ACCGGUUGUGCUUUCCGGUCUGAUGAGUCCGUGAGUACGAAACAG [A6U G36U] yielded a self-cleavage of 0.391. Variant ACCGCAAGUGCUUUCCGGUCUGAUGAGUCCGUGAGGACGAAACAG [G5C U7A] has a self-cleavage of 0.874. Variant ACCGGAUGUGCUUUCCGGUCCGAUGAGUCCGUGAGGACGAAACGG [U21C A44G] has a self-cleavage of 0.852. Variant ACCGGAUGUGCUUUCCGGUCUGAUGAGUCCGUGAGGCCGAAACAG [A37C] has a self-cleavage of 1. With ACCGGAUGUGCUUUCCGGUCUGAGGAGUCCGUGAGGUCGAAACAG [U24G A37U] the self-cleavage was 0.854. With ACCGGAUGUACUUUCGGGUCUGAUGAGUCCGUGAGGACGAAACAG [G10A C16G] the self-cleavage was 0.812. ACCGGAUGUGCUUUCCGGGCUGAGGAGUCCGUGAGGACGAAACAG [U19G U24G] gave a self-cleavage of 0.323. ACCGGAUGUGCUUACCGGUCUGAUGAGUCCGUUAGGACGAAACAG [U14A G33U] gave a self-cleavage of 0.872. For CCAGGAUGUGCUUUCCGGUCUGAUGAGUCCGUGAGGACGAAACAG [A1C C3A], the self-cleavage was 0.426. ACCGGAUGUGCUUUCCGGUCUGAUGAGUCCGUGAGGACGAAAAAU [C43A G45U] showed a self-cleavage of 0.68. ACCGGAUGUGCUUUCCGGUGUGAUGAGUCCCUGAGGACGAAACAG [C20G G31C] showed a self-cleavage of 0.321. Variant ACCGGAUGUGCGUUCCGGUCUGAUGAGUCGGUGAGGACGAAACAG [U12G C30G] has a self-cleavage of 0.706. ACCGGAUGUGCUUUCCGGUCUGAUGAGUCCCUGGGGACGAAACAG [G31C A34G] showed a self-cleavage of 0.994. ACCAGAUGUGCUUUCCGGUCUGAUGAGUCCGUGAGGACGAAACUG [G4A A44U] gave a self-cleavage of 0.435. With ACCGGAUGUGCUUUCCGGUCUGAAGAGUCCGUGGGGACGAAACAG [U24A A34G] the self-cleavage was 0.777. Variant ACCGGAUGUGCUUUCCGGACUGAUGAGUCCGUGAGGUCGAAACAG [U19A A37U] has a self-cleavage of 0.281. For ACAGGAUGUGCUUUCCGGUCUGAUGAGUCCUUGAGGACGAAACAG [C3A G31U], the self-cleavage was 1.05. In the case of ACCGGGUGUGCUUUCCGGUCUGAUGAGUACGUGAGGACGAAACAG [A6G C29A], the self-cleavage is reported as 0.36. ACCGGAUGUGCUUUGCGGUCUGAUGAGUCCGAGAGGACGAAACAG [C15G U32A] gave a self-cleavage of 0.875. ACCGGGCGUGCUUUCCGGUCUGAUGAGUCCGUGAGGACGAAACAG [A6G U7C] showed a self-cleavage of 1.29. AACUGAUGUGCUUUCCGGUCUGAUGAGUCCGUGAGGACGAAACAG [C2A G4U] gave a self-cleavage of 1.77. For ACCGGAUGCGCUUUCCGGUCUGAUGAGUCCGUGAGGAGGAAACAG [U9C C38G], the self-cleavage was 0.805. For ACCGGAUGUGCUUUCCGGUCUGAUGAGUCCGUCAGGACGAAACGG [G33C A44G], the self-cleavage was 1.13. For ACCGCAUGUGUUUUCCGGUCUGAUGAGUCCGUGAGGACGAAACAG [G5C C11U], the self-cleavage was 0.336. In the case of ACCGGAUGUUCUUUUCGGUCUGAUGAGUCCGUGAGGACGAAACAG [G10U C15U], the self-cleavage is reported as 1.07. In the case of ACCGGAUGUCCAUUCCGGUCUGAUGAGUCCGUGAGGACGAAACAG [G10C U12A], the self-cleavage is reported as 0.954. ACCGGAUGUGCUUUCCGGUCUGAUGAGUCCGUAAGGACGAAAUAG [G33A C43U] gave a self-cleavage of 0.816. In the case of ACCGGAUGUGCUUUACGGUCUGAUGAGUCCGUGAGGACGAACCAG [C15A A42C], the self-cleavage is reported as 0.291. ACCGGAUGUGCUUUCCGGUCGGAUGAGUCCGUGACGACGAAACAG [U21G G35C] showed a self-cleavage of 0.306. ACCGGAUGUGCUUUCCGGUCUGAUGAGUCCGUGAGUACAAAACAG [G36U G39A] gave a self-cleavage of 0.352. For ACCGGGUGUGCUUUCCGGUCUGGUGAGUCCGUGAGGACGAAACAG [A6G A23G], the self-cleavage was 0.272. In the case of ACCGGAUGUGCUUUCCGGUCUGAUCAGUCCGGGAGGACGAAACAG [G25C U32G], the self-cleavage is reported as 0.281. Work on AGCGGAUGUCCUUUCCGGUCUGAUGAGUCCGUGAGGACGAAACAG [C2G G10C] yielded a self-cleavage of 0.38. Work on ACCGGAUCUGCUGUCCGGUCUGAUGAGUCCGUGAGGACGAAACAG [G8C U13G] yielded a self-cleavage of 1.19. For ACCGGAUGUGCUUUCCGGUCUGAUGAGCCCGUGAGGACGGAACAG [U28C A40G], the self-cleavage was 0.356. In the case of ACCGGAUGUGCUUUCCGGUCUGAUGAGCCCGUGAGGACGUAACAG [U28C A40U], the self-cleavage is reported as 0.307. In the case of ACCGAAUGUGCUUUCCGGUCUGAUGCGUCCGUGAGGACGAAACAG [G5A A26C], the self-cleavage is reported as 0.464. In the case of ACCGGAUGUGCUUUCCGGUGUGACGAGUCCGUGAGGACGAAACAG [C20G U24C], the self-cleavage is reported as 0.302. ACCGGAUGUGCUUGCCUGUCUGAUGAGUCCGUGAGGACGAAACAG [U14G G17U] showed a self-cleavage of 0.485. Variant ACCGGAUGUGGUUUCCGGUCUGAUGAGUCCAUGAGGACGAAACAG [C11G G31A] has a self-cleavage of 1.03. In the case of ACCGGAUGUGUUUUCCGGUCUGAUGAGUCCGUGAGGACGAAACAG [C11U], the self-cleavage is reported as 1.02. In the case of ACCGGAUGUGCUUUCCGGUUUGAUGAGUCCGUGAGGACAAAACAG [C20U G39A], the self-cleavage is reported as 0.383. ACCGGAUGUGCUUUCCGGUCUGAUGCCUCCGUGAGGACGAAACAG [A26C G27C] gave a self-cleavage of 0.303. In the case of ACCGGGUGAGCUUUCCGGUCUGAUGAGUCCGUGAGGACGAAACAG [A6G U9A], the self-cleavage is reported as 0.796. Work on AACGGAUGUGCUUUCCGGUCUAAUGAGUCCGUGAGGACGAAACAG [C2A G22A] yielded a self-cleavage of 0.364. With ACUGGAUGUGCGUUCCGGUCUGAUGAGUCCGUGAGGACGAAACAG [C3U U12G] the self-cleavage was 0.843. Variant ACCGGAUGUGCUUACCGGUCUGAUGAGACCGUGAGGACGAAACAG [U14A U28A] has a self-cleavage of 0.656.
